Test results: publication PMC5693625
Read-outs that look alike come from different tables or passages of the source.

B1: 13 bp RNA, 25 nt 5' tail (R13-5'a/R38-5'a) (dsRNA)
RNA 1: CGAAAUGCCACGA
RNA 2: AAAACAAAACAAAACAAAACAAAAUUCGUGGCAUUUCG
B2: 16 bp RNA, 25 nt 5' tail (R16-5'a/R41-5'a) (dsRNA)
RNA 1: AGCACCGUAAAGACGC
RNA 2: AAAACAAAACAAAACAAAACAAAAUGCGUCUUUACGGUGCU
B3: 16 bp RNA, 25 nt 3' tail (R16-3'c/R41-3'c) (dsRNA)
RNA 1: CCGUCUUUACGGUGCU
RNA 2: AGCACCGUAAAGACGGUAAAACAAAACAAAACAAAACAAAA
B4: 16 bp RNA, 15 nt 3' tail (dsRNA)
RNA 1: CCGUCUUUACGGUGCU
RNA 2: AGCACCGUAAAGACGGUAAAACAAAACAAAA
B5: 19 bp RNA, 25 nt 5' tail (R19-5'c/R44-5'c) (dsRNA)
RNA 1: CAGAGGAGCAGAGGGAGCA
RNA 2: AAACUACGACUACAGUAACUACGACUGCUCCCUCUGCUCCUCUG

Legend:
Experiment in all cases: functional binding isotherm
[1] = molecular target: T1, DDX3X (Homo sapiens, UniProt O00571 1-662)
T1 sequence (O00571 whole entry): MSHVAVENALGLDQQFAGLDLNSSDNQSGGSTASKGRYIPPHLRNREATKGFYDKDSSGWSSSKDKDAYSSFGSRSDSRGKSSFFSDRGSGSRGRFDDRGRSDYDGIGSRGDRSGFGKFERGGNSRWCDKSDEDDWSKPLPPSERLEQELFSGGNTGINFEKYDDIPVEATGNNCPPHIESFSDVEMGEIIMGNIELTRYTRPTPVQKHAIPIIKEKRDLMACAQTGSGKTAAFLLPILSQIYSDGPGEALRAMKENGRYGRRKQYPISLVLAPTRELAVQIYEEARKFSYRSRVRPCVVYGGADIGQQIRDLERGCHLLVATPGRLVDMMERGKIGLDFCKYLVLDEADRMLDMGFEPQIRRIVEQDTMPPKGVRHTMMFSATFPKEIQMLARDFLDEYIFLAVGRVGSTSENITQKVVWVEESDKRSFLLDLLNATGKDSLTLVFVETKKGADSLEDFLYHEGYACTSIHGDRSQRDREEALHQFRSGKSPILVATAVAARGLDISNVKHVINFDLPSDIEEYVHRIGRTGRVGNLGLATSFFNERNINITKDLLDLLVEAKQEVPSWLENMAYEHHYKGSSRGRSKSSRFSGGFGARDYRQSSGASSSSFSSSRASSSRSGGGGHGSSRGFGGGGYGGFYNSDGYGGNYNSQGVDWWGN

[2] = molecular target: T1, DDX3X; remark: listed apart in the source
[3] = molecular target: T1, DDX3X; remark: listed apart in the source

| Binder | apparent K (half saturation) [1] | apparent K (half saturation) [2] | apparent K (half saturation) [3] |
| --- | --- | --- | --- |
| B1 | 139 ± 21 nM | – | – |
| B2 | – | 119 ± 35 nM | 127 ± 20 nM |
| B3 | – | – | 118 ± 5 nM |
| B4 | – | – | 298 ± 4 nM |
| B5 | – | 166 ± 18 nM | – |
